Columns and labels:
Format in all cases: cell-based
[1] = system: HPRT mRNA; assay: Pretreatment of well differentiated pig airway epithelia before HPRT siRNA transfection, qPCR; conditions: well differentiated PAE; KGF 50 ng/ml 24 h, EGTA 6 mM 30 m, LLnL 40 μM 24 hrs; then 250 nM HPRT siRNA with RNAiMAX or Transductin
Description: (§1) For airway epithelia that were either well or poorly differentiated, transfection was done mostly according to the manufacturer's protocol. In all cases, the apical surface of epithelia was washed twice with PBS before adding the transfection mixture to the apical surface. The mixture was then left on the cells for 24 h for all transfection reagents. For PK1 cells, reverse transfection was performed in a 48-well plate by first adding the siRNA-RNAiMAX reagent mixture onto the plate and then adding the dispersed cells (40,000 cells) on top of the mixture and allowing the cells to adhere and establish growth for 24 h. […]
(§2) Total RNA was isolated using SV96 RNA isolation kit (Promega), according to manufacturer's protocol. […] One-fifteenth of the cDNA was then amplified and analyzed by Taqman assay in the 7900 Real Time PCR System (Applied Biosystems) using synthesized primer-probe pairs (IDT, Coralville, Iowa), reaction buffer and Immolase DNA polymerase (Bioline, Taunton, Mass.). […] Absolute quantification of an mRNA target sequence within an unknown sample was determined by reference to a standard curve. […]
(§3) Wortmannin was purchased from Sigma (St. Louis, Mo.) as a ready to use solution. […]

[2] = system: human airway epithelia; assay: Confocal imaging of DIG-labeled siRNA uptake in human airway epithelia; conditions: EGF 100 μg/ml for 15 min, imaged 2 h after transfection, vs untreated cells (data not shown)
Description: The primary human airway epithelia grown at air-liquid interface were transfected with the DIG-labeled siRNA at a concentration of 250 ng/ml after complexing with Transductin. The transfection mixture was left on the apical surface for 2 h. At the end of this period, the cells were fixed in 2% formaldehyde, permeabilized in 0.2% Triton-x-100 and blocked in 1% BSA for 1 h. The cells were then stained with mouse antibody to DIG (Roche Biochemicals) for 1 h followed by either Alexa 488 labeled goat anti-mouse secondary antibody for 1 h followed by Alexa 488 labeled rabbit […] antibody (Invitrogen) for 1 or in some cases with Alexa 564 goat anti-mouse secondary antibody for 1 h. The cells were finally stained with nuclear stain, ToPro 3 for 10 minutes. The filter, containing the cells, was removed from the culture insert by cutting the edges with razor blade and then mounted onto a slide by the use of Vectashield. The slide was visualized by confocal microscopy.

[3] = system: HPRT mRNA; assay: Pretreatment of well-differentiated human airway epithelia before HPRT siRNA transfection, qPCR
Description: as §1, §2, §3

Molecule	silencing of HPRT mRNA after pretreatment [1]	uptake of the DIG signal [2]	decrease in HPRT mRNA levels ([3]; human airway cells, EGF 100 μg/ml for 15 min apically before siRNA-Transductin (250 nM), 3 donors)	siRNA uptake and knockdown ([3]; pretreatment of the mucosal surface with EGF (200 μg/ml), well differentiated cells, species not stated)
KGF: Keratinocyte growth factor, a member of the fibroblast growth factor family (protein, UniProt P21781 32-194, looked up) Fibroblast growth factor 7: CNDMTPEQMATNVNCSSPERHTRSYDYMEGGDIRVRRLFCRTQWYLRIDKRGKVKGTQEMKNNYNIMEIRTVAVGIVAIKGVESEFYLAMNKEGKLYAKKECNEDCNFKELILENHYNTYASAKWTHNGGEMFVALNQKGIPVRGKKTKKEQKTAHFLPMAIT	did not reduce			
EGF: human Epidermal Growth Factor (Sigma-Aldrich) (protein, UniProt P01133 23-1207, looked up, Pro-epidermal growth factor) Pro-epidermal growth factor: PQHWSCPEGTLAGNGNSTCVGPAPFLIFSHGNSIFRIDTEGTNYEQLVVDAGVSVIMDFHYNEKRIYWVDLERQLLQRVFLNGSRQERVCNIEKNVSGMAINWINEEVIWSNQQEGIITVTDMKGNNSHILLSALKYPANVAVDPVERFIFWSSEVAGSLYRADLDGVGVKALLETSEKITAVSLDVLDKRLFWIQYNREGSNSLICSCDYDGGSVHISKHPTQHNLFAMSLFGDRIFYSTWKMKTIWIANKHTGKDMVRINLHSSFVPLGELKVVHPLAQPKAEDDTWEPEQKLCKLRKGNCSSTVCGQDLQSHLCMCAEGYALSRDRKYCEDVNECAFWNHGCTLGCKNTPGSYYCTCPVGFVLLPDGKRCHQLVSCPRNVSECSHDCVLTSEGPLCFCPEGSVLERDGKTCSGCSSPDNGGCSQLCVPLSPVSWECDCFPGYDLQLDEKSCAASGPQPFLLFANSQDIRHMHFDGTDYGTLLSQQMGMVYALDHDPVENKIYFAHTALKWIERANMDGSQRERLIEEGVDVPEGLAVDWIGRRFYWTDRGKSLIGRSDLNGKRSKIITKENISQPRGIAVHPMAKRLFWTDTGINPRIESSSLQGLGRLVIASSDLIWPSGITIDFLTDKLYWCDAKQSVIEMANLDGSKRRRLTQNDVGHPFAVAVFEDYVWFSDWAMPSVMRVNKRTGKDRVRLQGSMLKPSSLVVVHPLAKPGADPCLYQNGGCEHICKKRLGTAWCSCREGFMKASDGKTCLALDGHQLLAGGEVDLKNQVTPLDILSKTRVSEDNITESQHMLVAEIMVSDQDDCAPVGCSMYARCISEGEDATCQCLKGFAGDGKLCSDIDECEMGVPVCPPASSKCINTEGGYVCRCSEGYQGDGIHCLDIDECQLGEHSCGENASCTNTEGGYTCMCAGRLSEPGLICPDSTPPPHLREDDHHYSVRNSDSECPLSHDGYCLHDGVCMYIEALDKYACNCVVGYIGERCQYRDLKWWELRHAGHGQQQKVIVVAVCVVVLVMLLLLSLWGAHYYRTQKLLSKNPKNPYEESSRDVRSRRPADTEDGMSSCPQPWFVVIKEHQDLKNGGQPVAGEDGQAADGSMQPTSWRQEPQLCGMGTEQGCWIPVSSDKGSCPQVMERSFHMPSYGTQTLEGGVEKPHSLLSANPLWQQRALDPPHQMELTQ		increased uptake	15-20%	enhanced uptake and facilitated siRNA knockdown

From US9272016B2, “Methods to enhance RNAi oligonucleotide delivery to respiratory epithelial cells” (University of Iowa Research Foundation, priority 2012, dated 2016)
